This is an account of results in patent US20050287607A1.

Holding throughout (assay): flow cytometry, R4A-tetramer staining of splenocytes
In general terms: A flow cytometer gives signals particle by particle.

In assay [1] the target is splenocytes of BALB/c mice immunized with adjuvant alone (mouse).
The target in assay [2] is peptide-reactive B cells (surface immunoglobulin) in splenocytes of BALB/c mice immunized with MAP-peptide (R4A peptide on a branched polylysine backbone) (mouse).
The target of assay [3] is splenocytes of BALB/c mice immunized with MAP-core (mouse).

No end group written: not given here. *: point of attachment. Biotin = O=C1N[C@H]2[C@H](CS[C@H]2CCCCC(=O)*)N1

Take Biotin-DWEYSLWLSN (peptide, part only; not given: labeled streptavidin, not shown: large carriers, also: tetramer with fluorochrome-labeled streptavidin/neutravidin) [R4A-tetramer (tetrameric fluorochrome-labeled form of the R4A peptide)]: the frequency of tetramer-binding cells (percent of the gated population) (% of the gated population) in assay [1] and in assay [3] was below 0.05 each time. Moreover, the frequency of cells staining (percent of gated cells) (% of gated cells) in assay [2] worked out at 1.
